Assay results taken from patent US20210347873A1 (SHANGHAI PHARMAEXPLORER, published 2021).
Residue numbers refer to the chain shown, from its start.

T1: human APRIL protein (human, UniProt O75888 105-250, limits assumed)
T1 construct: Bought protein; also called recombinant APRIL protein
T1 sequence (looked up): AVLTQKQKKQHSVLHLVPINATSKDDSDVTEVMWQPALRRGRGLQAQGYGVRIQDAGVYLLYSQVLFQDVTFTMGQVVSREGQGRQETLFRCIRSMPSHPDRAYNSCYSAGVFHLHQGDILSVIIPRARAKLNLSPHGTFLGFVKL

B1: humanized BLyS antibody h8E7D9C7F5-1 (antibody, human IgG1, V domains shown)
VH: EVQLVQSGAEVKKPGASVKVSCKASGYTFTSYGISWVRQAPGQGLEWMGEIYPRSGNTYYNEKFKGRVTMTTDTSTSTAYMELRSLRSDDTAVYYCARSGPITTLVATDYGMDYWGQGTTVTVSS
VL: DIVMTQSPDSLAVSLGERATINCRASKSVSTSSYSYMHWYQQKPGQPPKLLIKFASNLESGVPDRFSGSGSGTDFTLTISSLQAEDVAVYYCQHSREFPYTFGGGTKVEIK
B2: 93C6F10D3 (antibody, V domains shown)
VH: EVQLVESGGGLVTPGGSLKLSCVASGFAFSTYGMSWVRQTPERRLEWVAYISGGGGSIYYPDSVKGRFTISRDNAKNILYLQMSSLKSEDTAMYHCTRHPDLLLRYDYALDHWGQGTSVTVSS
VL: DIQMTQSPASLSASVGETVTITCRASENIHIYLAWYQQKQGKSPQLLVYNGKTLADGVPSRFSGSGSGTQYSLKINTLQPEDFGNYYCQHFWNSTWTFGGGTKLEIK
B3: 20D1B6E9E5 (antibody, V domains shown)
VH: EVQLQQSVAELVRPGASVKLSCTASDFNIKNTYIHWVKQRPEQGLEWIGRIDPVNGNTKYAPKFQDKATIIVDTYSNTAYLQLSSLASEDTAVYYCARWPITTIVATDWYFDVWGTGTTVTVSS
VL: DVLMTQTQLALPVRLGEQASISCRSSQSIVNSNGNTYLEWYLQKPGQSPKLLIYKVSNRFSGVPDRFSGSGSGTDFTLKISRVEAEDLGVYYCFQGSHVPWTFGGGTKLEIK
B4: c20D1B6E9E5 (antibody, V domains shown)
VH: B3 VH
VL: B3 VL
B5: humanized BLyS antibody h97A3C2H4-9 (antibody, human IgG1, V domains shown)
VH: EVQLVESGGGLVQPGGSLRLSCAASGFTFSTYTMSWVRQAPGKRLEWVAYISYGGGSTSYPDTVKGRFTISRDNAKNSLYLQMNSLRAEDTAVYYCTRHVTVVENSMDYWGQGTTVTVSS
VL: DILLTQSPDFQSVTPKEKVTITCRASQSIGTSIHWYQQKTDQSPKLLIKYVSESFSGTPSRFSGSGSGTDFTLTINSLEAEDAATYYCQQTHSWPWTFGGGTKVEIK
B6: mouse-human chimeric BLyS antibody c97A3C2H4 (antibody, human IgG1, V domains shown)
VH: B5 VH with Q3K, R19K, A40T, G42E, S78T, N84S, R87K, A88S, V93I, T115S
VL: DILLTQSPDILSVSPGERVSFSCRASQSIGTSIHWYQQRTNGSPRLLIKYVSESFSGTPSRFSGSGSGTAFTLTINSVESEDIADYYCQQTHSWPWTFGGGTKLEIK
B7: 8E7D9C7F5 (antibody, V domains shown)
VH: QVQLQQSGVELARPGASVKLSCKASGYTFTSYGISWVKQRTGQALEWIGEIYPRSGNTYYNEKFKGKATLTADKSSSTAYMELRSLTSEDSAVYFCARSGPITTLVATDYGMDYWGQGTSVTVSS
VL: DIVLTQSPASLAVSLGQRATISCRASKSVSTSSYSYMHWYQQKPGQPPKLLIKFASNLESGVPARFSGSGSGTDFTLNIHPVEEEDAATYYCQHSREFPYTFGGGTKLEIK
B8: mouse-human chimeric BLyS antibody c8E7D9C7F5 (antibody, human IgG1, V domains shown)
VH: B7 VH
VL: B7 VL
B9: c97E7B3F2 (antibody, V domains shown)
VH: EVQLQQSGPELVKSGASVKISCKASGYTFTDHKMHWVKQSHGKSLEWIGYISPYNGGTGYNQKFKSKVTLTVDISSSTAYMELRSLTSEDSAVYYCARWGFYDVMDSWGQGTSVTVSS
VL: DVLLTQTPLSLPVSLGDQASISCRSSQTIVHIIGDTYLEWYLQKPGQSPKLLIYKVSNRFSGVPDRFSGSGAGTDFTLKISRVEAEDLGVYYCFQGSHVPRTFGGGTKLEIK
B10: c89A2G5E7 (antibody, V domains shown)
VH: QVQLKESGPGLVAPSQSLSITCTVSGLSLNSHDISWIRQPPGKGLEWLGVIWSGGGTKYNSAFMSRLSISKDNSKSQVFLKMNSLHTDDTAIYYCVRTPSMITYSAMDYWGQGTSVTVSS
VL: EIVLTQSPALMAASPGEKVTITCSVSSSISSRNLHWYQQKSQTSPKAWIHATSNLASGVPVRFSGSGSGTSYSLTISSMEAEDAATYYCQQWSSYPLTFGSGTKLEIK

Assays:
[1] = molecular target: His-tagged extracellular domain of human BLyS protein (hBLyS-ECD), Ala134-Leu285 (human, UniProt Q9Y275 134-285); assay: cell-based or functional assay
human APRIL protein [2] = molecular target: T1, human APRIL protein; assay: ELISA, coated APRIL; antibody 0 nM (blank)
Protocol: (§1) To test whether the BLyS antibody cross-reacted with human APRIL protein, APRIL protein (purchased from R & D Systems) was first diluted to a final concentration of 1.0 μg/mL with PBS, and then 50 μL of which per well was aliquoted into a 96-well ELISA plate, and the plate was subsequently sealed with plastic film and incubated at 4° C. overnight. On the next day the plate was rinsed four times with the plate washing buffer [PBS buffer containing 0.0500 (v/v) Tween20] and a blocking solution [PBS buffer containing 0.05 (v/v) Tween20 and 1 (w/w) BSA] was added, then the protein was blocked at 37° C. for 2 hours. The blocking solution was removed and 100 μL per well of the lead antibodies prepared in Embodiment 1 and 2 were added in. After incubation for 1 hour at 37° C., the plate was rinsed four times with the plate washing buffer [PBS buffer containing 0.05 (v/v) Tween20]. HRP-labeled (horseradish peroxidase) secondary antibody (purchased from Sigma) was added in and incubated at 37° C. for 1 hour. The plate was then rinsed four times with the plate washing buffer [PBS buffer containing 0.050 (v/v) Tween20]. 100 μL of TMB substrate was aliquoted into each well and after incubation at room temperature for 5 minutes, 100 μL of stop solution (1.0 N HCl) was aliquoted into each well. A₄₅₀ₙₘ values were read via an ELISA plate reader (SpectraMax M5e purchased from Molecular Devices) and the results were shown in FIGS. 6A-6B and Table 11. […] As used herein, the IgG control is human IgG and the data in the table is GD number at 450 nm.

human APRIL protein [3] = molecular target: T1, human APRIL protein; assay: ELISA, coated APRIL; antibody 66.7 nM
Protocol: as §1

human APRIL protein [4] = molecular target: T1, human APRIL protein; assay: ELISA, coated APRIL; antibody 0.0213 nM
Protocol: as §1

human APRIL protein [5] = molecular target: T1, human APRIL protein; assay: ELISA, coated APRIL; antibody 0.534 nM
Protocol: as §1

human APRIL protein [6] = molecular target: T1, human APRIL protein; assay: ELISA, coated APRIL; antibody 2.67 nM
Protocol: as §1

human APRIL protein [7] = molecular target: T1, human APRIL protein; assay: ELISA, coated APRIL; antibody 13.3 nM
Protocol: as §1

human APRIL protein [8] = molecular target: T1, human APRIL protein; assay: ELISA, coated APRIL; antibody 0.107 nM
Protocol: as §1

human APRIL protein [9] = molecular target: T1, human APRIL protein; assay: ELISA, coated APRIL; antibody 0.00427 nM
Protocol: as §1

[10] = molecular target: T2, extracellular domain of human BLyS protein (hBLyS-ECD), His-tagged, Ala134-Leu285 (human, UniProt Q9Y275 134-285); assay: SPR (Biacore), antibody captured by anti-human Fc, hBLyS-ECD as analyte
T2 construct: Expressed in HEK293 cells and purified on a Ni column; also called immunogen
T2 sequence (Q9Y275 134-285): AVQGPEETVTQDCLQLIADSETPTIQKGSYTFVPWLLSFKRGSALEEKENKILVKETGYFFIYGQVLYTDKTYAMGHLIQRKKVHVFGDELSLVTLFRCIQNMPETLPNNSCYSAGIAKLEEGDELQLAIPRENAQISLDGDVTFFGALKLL

| Binder | mouse B lymphocyte proliferation stimulated by hBLyS-ECD (viable cell signal) at 0 nM antibody [1] | mouse B lymphocyte proliferation stimulated by hBLyS-ECD (viable cell signal) at 0.000256 nM antibody [1] | mouse B lymphocyte proliferation stimulated by hBLyS-ECD (viable cell signal) at 0.00128 nM antibody [1] | mouse B lymphocyte proliferation stimulated by hBLyS-ECD (viable cell signal) at 0.0064 nM antibody [1] | mouse B lymphocyte proliferation stimulated by hBLyS-ECD (viable cell signal) at 0.032 nM antibody [1] | mouse B lymphocyte proliferation stimulated by hBLyS-ECD (viable cell signal) at 0.16 nM antibody [1] | mouse B lymphocyte proliferation stimulated by hBLyS-ECD (viable cell signal) at 0.8 nM antibody [1] | mouse B lymphocyte proliferation stimulated by hBLyS-ECD (viable cell signal) at 4 nM antibody [1] | mouse B lymphocyte proliferation stimulated by hBLyS-ECD (viable cell signal) at 20 nM antibody [1] | mouse B lymphocyte proliferation stimulated by hBLyS-ECD (viable cell signal) at 100 nM antibody [1] | OD450 nm (human APRIL protein [2]) | OD450 nm (human APRIL protein [3]) | OD450 nm (human APRIL protein [4]) | OD450 nm (human APRIL protein [5]) | OD450 nm (human APRIL protein [6]) | OD450 nm (human APRIL protein [7]) | OD450 nm (human APRIL protein [8]) | OD450 nm (human APRIL protein [9]) | Kd [10] | koff [10] | other results |
| --- | --- | --- | --- | --- | --- | --- | --- | --- | --- | --- | --- | --- | --- | --- | --- | --- | --- | --- | --- | --- | --- |
| B1 | 3480 OD450 nm (as headed) | 3000 OD450 nm (as headed) | 3120 OD450 nm (as headed) | 3200 OD450 nm (as headed) | 2970 OD450 nm (as headed) | 2730 OD450 nm (as headed) | 951 OD450 nm (as headed) | 209 OD450 nm (as headed) | 152 OD450 nm (as headed) | 131 OD450 nm (as headed) | – | – | – | – | – | – | – | – | – | – | – |
| B2 | – | – | – | – | – | – | – | – | – | – | 0.0568 | 0.57 | 0.0568 | 0.0584 | 0.0746 | 0.171 | 0.0551 | 0.0546 | – | – | – |
| B3 | – | – | – | – | – | – | – | – | – | – | 0.055 | 0.942 | 0.0546 | 0.0611 | 0.0775 | 0.257 | 0.0543 | 0.0535 | – | – | – |
| B4 | – | – | – | – | – | – | – | – | – | – | – | – | – | – | – | – | – | – | 0.642 nM | 0.000211 s⁻¹ | kon [10]: 329000 M⁻¹ s⁻¹ |
| B5 | 3590 OD450 nm (as headed) | 3080 OD450 nm (as headed) | 3540 OD450 nm (as headed) | 2970 OD450 nm (as headed) | 2960 OD450 nm (as headed) | 2770 OD450 nm (as headed) | 1110 OD450 nm (as headed) | 217 OD450 nm (as headed) | 137 OD450 nm (as headed) | 127 OD450 nm (as headed) | – | – | – | – | – | – | – | – | – | – | – |
| B6 | 3450 OD450 nm (as headed) | 3110 OD450 nm (as headed) | 2900 OD450 nm (as headed) | 3050 OD450 nm (as headed) | 2960 OD450 nm (as headed) | 2890 OD450 nm (as headed) | 429 OD450 nm (as headed) | 223 OD450 nm (as headed) | 159 OD450 nm (as headed) | 169 OD450 nm (as headed) | – | – | – | – | – | – | – | – | – | – | – |
| B7 | – | – | – | – | – | – | – | – | – | – | 0.0551 | 0.464 | 0.0565 | 0.0599 | 0.0703 | 0.116 | 0.0558 | 0.0571 | – | – | – |
| B8 | 3640 OD450 nm (as headed) | 3310 OD450 nm (as headed) | 3360 OD450 nm (as headed) | 3020 OD450 nm (as headed) | 2950 OD450 nm (as headed) | 3200 OD450 nm (as headed) | 408 OD450 nm (as headed) | 187 OD450 nm (as headed) | 187 OD450 nm (as headed) | 116 OD450 nm (as headed) | – | – | – | – | – | – | – | – | – | – | – |
| B9 | – | – | – | – | – | – | – | – | – | – | – | – | – | – | – | – | – | – | 0.147 nM | 4.89e-05 s⁻¹ | kon [10]: 334000 M⁻¹ s⁻¹ |
| B10 | – | – | – | – | – | – | – | – | – | – | – | – | – | – | – | – | – | – | 0.0857 nM | 1.82e-05 s⁻¹ | kon [10]: 213000 M⁻¹ s⁻¹ |
